Assay results from the supplement of paper PMC10567573.

B1: SCNN1D (parent)
chain: RRPSPVLRHLELLDEFARENIDSL
B2: CHMP4C (parent)
chain: TNIRLPNVPSSSLPAQPNRKPGMS

Variants of: B1
Assay: protein stability index of a GFP-peptide fusion (GPS, HEK-293T) (PSI 1-6); higher = more stable
Conditions: c terminus: a fixed tail appended
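Also: lentivirally expressed fusions sorted by FACS into six bins by GFP to DsRed ratio, PSI derived from sequencing read proportions per bin multiplied by bin number.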

Protein stability index of substitutions, site by site:
L12: A 3.81 | K 4.1 | T 4.35 | Q 4.51 | V 4.05 | I 3.65 | E 4.08 | R 3.63 | G 4.09 | D 4.64 | S 4.4 | H 4.25 | W 3.1 | Y 3.56 | F 2.81 | N 3.9 | M 3.98 | C 3.97 | P 4.4
V6: T 2.98 | W 1.79 | I 1.95 | K 2.63 | E 3.37 | Q 2.82 | A 2.86 | G 3.96 | C 2.72 | H 3.79 | R 2.43 | D 4.09 | P 4.22 | M 2.31 | S 3.48 | N 3.77 | Y 1.96 | L 1.91 | F 2.28
L10: E 4.49 | T 3.59 | N 4.23 | D 4.42 | M 2.34 | A 3.84 | C 3.24 | R 4.46 | F 3.9 | Q 3.84 | P 3.56 | W 3.23 | K 4.33 | S 4.16 | H 3.98 | V 3.41 | G 3.95 | Y 3 | I 2.1
H9: S 3.68 | M 1.89 | L 2.17 | R 3.92 | T 3.83 | K 3.28 | W 1.69 | I 2.24 | F 1.74 | G 3.76 | Y 1.83 | Q 3.79 | E 3.99 | D 3.99 | P 3.95 | N 4.09 | A 2.65 | V 2.4 | C 2.48
R1: H 2.43 | L 2.21 | F 1.99 | S 2.63 | Q 2.69 | N 2.5 | C 2 | P 2.58 | K 2.92 | D 2.86 | E 3.36 | T 2.38 | G 2.46 | M 2.19 | W 2.18 | I 2.1 | Y 1.72 | V 2.36 | A 2.1
P3: G 2.75 | E 2.38 | C 2.73 | W 1.76 | Y 2.31 | Q 1.92 | T 2.83 | R 2.85 | M 2.26 | H 1.96 | L 2.42 | N 3.06 | S 2.72 | A 2.35 | K 3.06 | F 1.88 | V 1.44 | I 1.96 | D 2.74
L13: G 4.23 | C 3.57 | A 3.98 | H 4.31 | E 4.48 | D 4.57 | M 3.59 | K 3.9 | I 3.73 | F 3.14
E11: Y 2.25 | S 3.25 | T 2.41 | H 3.18 | M 2.14 | R 2.96 | F 1.89 | V 2.56 | N 3.5 | P 3.75 | A 3.1 | I 1.9 | Q 3.06 | W 2.49 | G 4.33 | K 2.83 | C 2.01 | L 1.41 | D 3.55
R8: V 2.99 | E 4.4 | W 2.7 | I 2.37 | T 3.59 | Q 4.09 | N 4.34 | C 2.09 | S 3.77 | H 3.61 | A 3.33 | Y 2.87 | L 2.49 | P 4.18 | F 2.61 | K 3.5 | M 3.43 | D 4.71
R2: K 2.85 | G 3.52 | Q 3.21 | N 3.25 | E 3.22 | F 2.22 | D 3.41 | M 2.5 | C 3.38 | T 3.55 | Y 1.63 | A 3.98 | V 2.93 | H 2.68 | W 1.78 | I 2.6 | S 4.32 | P 4.61 | L 1.94
L7: D 4.49 | Q 3.4 | E 3.53 | F 3.29 | I 3.1 | N 3.6 | P 4.08 | S 3.38 | C 3.53 | R 3.64 | V 3.1 | A 3.04 | G 4.17 | Y 3.24 | H 3.4 | T 3.48 | M 2.9 | K 3.82 | W 2.18
S4: D 3.68 | L 2.66 | I 2.67 | A 2.63 | P 3.17 | G 2.65 | Y 2.5 | F 2.47 | Q 3.89 | N 2.34 | E 3.61 | W 2.35 | V 2.82 | M 2.88 | R 2.87 | H 2.14 | C 2.99 | T 3.15 | K 3.14
P5: W 1.93 | F 2.19 | D 3.08 | H 2.97 | L 2.06 | S 2.85 | Q 4.62 | T 3.05 | M 2.5 | I 2.27 | R 3.63 | Y 2.65 | K 3.59 | N 3.22 | V 2.43 | E 3.77 | A 2.4 | C 2.17 | G 3.53

Variants of: B2
Assay: as above
Conditions: c terminus: a fixed tail appended

Protein stability index of substitutions, site by site:
M23: N 5.13 | A 5.03 | D 5.58 | T 5.17 | P 4.28 | Q 5.23 | K 4.37 | E 5.61 | H 4.92 | L 4.88 | F 4.42 | V 4.82 | Y 4.7 | C 4.84 | I 4.37 | R 4.04 | S 5.17 | G 5.2 | W 3.96
K20: C 4.3 | F 3.79 | V 3.66 | L 4.41 | H 4.4 | T 3.92 | G 4.39 | W 3.41 | M 3.75 | N 4.41 | D 4.44 | R 4.4 | A 4.43 | P 3.77 | E 4.27 | Y 4.02 | S 4.56 | Q 4.55 | I 3.61
R19: Y 3.94 | W 3.6
P21: G 4.31 | V 4.14 | R 4.94 | L 4.29 | I 4.31 | K 4.65 | Q 4.96 | M 4.32 | E 4.5 | T 4.47 | D 4.59 | S 4.41 | A 5 | Y 4.05 | W 3.4 | H 4.45 | C 4.24 | N 4.11 | F 4.32
S24: T 4.62 | K 4.94 | L 4.15 | V 4.86 | Q 4.69 | Y 4.34 | A 4.48 | C 4.2 | D 3.96 | I 4.27 | P 4.81 | M 3.99 | E 4.83 | F 4.21 | N 4.57 | G 4.14 | H 4.5 | R 4.67 | W 3.8
G22: V 4.29 | C 4.4 | Q 4.88 | W 3.75 | D 4.78 | I 4.39 | P 4.24 | H 4.32 | L 4.22 | F 4.2 | A 4.48 | Y 4.01 | T 4.21 | M 4.2 | S 4.08 | N 5.03 | R 4.92 | E 4.68 | K 4.64
